Data as given in patent publication US20030069395A1 (DYAX, published 2003).
Bridges are numbered along the chain shown (N, C = ends). Where no end group is shown, it is not given here. [ ]: non-standard residue; d: D form. fluorescein = fluorescein label; Ahx = NCCCCCC(=O)O

B1: phage isolate displaying FRNCEPWMLRFGCNPR (SEQ ID NO: 244) (peptide)
chain: FRNCEPWMLRFGCNPR
modifications: not fully specified (bridges); cysteine pairing not given here
notes: Whole phage in the ELISA; not shown: protein III of M13 phage; the display peptide stands at its amino terminus
B2: phage isolate displaying RNMCKFSWIRSPAFCARADP (SEQ ID NO: 251) (peptide)
chain: RNMCKFSWIRSPAFCARADP
modifications: not fully specified (bridges); cysteine pairing not given here
notes: as for B1
B3: phage isolate displaying HVGCNNALCMQY (SEQ ID NO: 241) (peptide)
chain: HVGCNNALCMQY
modifications: not fully specified (bridges); cysteine pairing not given here
notes: as for B1
B4: phage isolate displaying ADFCEGKDMIDWVYCRLY (SEQ ID NO: 245) (peptide)
chain: ADFCEGKDMIDWVYCRLY
modifications: not fully specified (bridges); cysteine pairing not given here
notes: as for B1
B5: phage isolate displaying FWFCDRIAWYPQHLCEFLD (SEQ ID NO: 246) (peptide)
chain: FWFCDRIAWYPQHLCEFLD
modifications: not fully specified (bridges); cysteine pairing not given here
notes: as for B1
B6: phage isolate displaying DWDCVTRWANRDQQCWAL (SEQ ID NO: 248) (peptide)
chain: DWDCVTRWANRDQQCWAL
modifications: not fully specified (bridges); cysteine pairing not given here
notes: as for B1
B7: phage isolate displaying NHGCWHFSCIWD (SEQ ID NO: 243) (peptide)
chain: NHGCWHFSCIWD
modifications: not fully specified (bridges); cysteine pairing not given here
notes: as for B1
B8: phage isolate displaying FKICDQWFCLMP (SEQ ID NO: 240) (peptide)
chain: FKICDQWFCLMP
modifications: not fully specified (bridges); cysteine pairing not given here
notes: as for B1
B9: phage isolate displaying WKVCDHFFCLSP (SEQ ID NO: 242) (peptide)
chain: WKVCDHFFCLSP
modifications: not fully specified (bridges); cysteine pairing not given here
notes: as for B1
B10: phage isolate displaying VAWCTIFLCLDV (SEQ ID NO: 239) (peptide)
chain: VAWCTIFLCLDV
modifications: not fully specified (bridges); cysteine pairing not given here
notes: Whole phage in the ELISA; the constant phage residues that flank the display peptide are not spelled out for the phage construct; not shown: protein III of M13 phage; the display peptide stands at its amino terminus
B11: phage isolate displaying DWQCVKDWANRRRGCMAD (SEQ ID NO: 250) (peptide)
chain: DWQCVKDWANRRRGCMAD
modifications: not fully specified (bridges); cysteine pairing not given here
notes: as for B1
B12: phage isolate displaying DWDCVTDWANRHQHCWAL (SEQ ID NO: 249) (peptide)
chain: DWDCVTDWANRHQHCWAL
modifications: not fully specified (bridges); cysteine pairing not given here
notes: as for B1
B13: DX-295, Ac-AEGTGSFKICDQWFCLMPAPE-X-K-NH2 (peptide)
peptide: Ac-AEGTGSFKICDQWFCLMPAPE[Ahx]K(fluorescein)-NH2
modifications: disulfide 10-15
B14: DX-317, Ac-AEGTGDDWDCVTDWANRHQHCWALDPE-X-K-NH2 (peptide)
peptide: Ac-AEGTGDDWDCVTDWANRHQHCWALDPE[Ahx]K(fluorescein)-NH2
modifications: disulfide 10-21
B15: DX-232, Ac-AEGTGSVAWCTIFLCLDVAPEGGGK-NH2 (peptide)
peptide: Ac-AEGTGSVAWCTIFLCLDVAPEGGGK-NH2
modifications: not fully specified (bridges); printed as Ac-AEGTGSVAWCTIFLCLDVAPEGGGK-NH2; also: C-terminal Lys: fluorescein or coupled to NHS-Sepharose
notes: Putative disulfide between the two Cys
B16: DX-1177, Ac-AGLEYCFYQWWGCPHAGTGGGK-NH2 (peptide)
peptide: Ac-AGLEYCFYQWWGCPHAGTGGGK(fluorescein)-NH2
modifications: not fully specified (bridges); printed as Ac-AGLEYCFYQWWGCPHAGTGGGK-NH2; cysteine pairing not given here
B17: DX-321 of Table 9, Ac-GDRNMCKFSWIRSPAFCARADPGGGK-NH2 (peptide)
peptide: Ac-GDRNMCKFSWIRSPAFCARADPGGGK(fluorescein)-NH2
modifications: disulfide 6-17 (inferred)
B18: DX-997, Ac-GDFSLCWIVDEDGTKWCLPDPGGGK-NH2 (peptide)
peptide: Ac-GDFSLCWIVDEDGTKWCLPDPGGGK(fluorescein)-NH2
modifications: disulfide 6-17 (inferred)
B19: DX-1093, Ac-GSLWDCWLYDCEGNAPGGGK-NH2 (peptide)
peptide: Ac-GSLWDCWLYDCEGNAPGGGK(fluorescein)-NH2
modifications: disulfide 6-11 (inferred)
B20: DX-1163, Ac-GDDSMCITWPFKRPWPCANDPGGGK-NH2 (peptide)
peptide: Ac-GDDSMCITWPFKRPWPCANDPGGGK(fluorescein)-NH2
modifications: not fully specified (bridges); printed as Ac-GDDSMCITWPFKRPWPCANDPGGGK-NH2; cysteine pairing not given here
B21: DX-1002, Ac-GDLRDCQTTWPFTMMQCPNNDPGGGK-NH2 (peptide)
peptide: Ac-GDLRDCQTTWPFTMMQCPNNDPGGGK(fluorescein)-NH2
modifications: not fully specified (bridges); printed as Ac-GDLRDCQTTWPFTMMQCPNNDPGGGK-NH2; cysteine pairing not given here
B22: DX-1165, Ac-GDNDGCTDTNWSWMFDCPPLDPGGGK-NH2 (peptide)
peptide: Ac-GDNDGCTDTNWSWMFDCPPLDPGGGK(fluorescein)-NH2
modifications: disulfide 6-17 (inferred)
B23: DX-1173, Ac-AGKWYCAWDPLVCEIFGTGGGK-NH2 (peptide)
peptide: Ac-AGKWYCAWDPLVCEIFGTGGGK(fluorescein)-NH2
modifications: disulfide 6-13 (inferred)
B24: DX-1167, Ac-GDSPYCKIALFQHFEVCAADDPGGGK-NH2 (peptide)
peptide: Ac-GDSPYCKIALFQHFEVCAADDPGGGK(fluorescein)-NH2
modifications: disulfide 6-17 (inferred)
B25: DX-1171, Ac-GSRSFCMDWPNHRDCDYSAPGGGK-NH2 (peptide)
peptide: Ac-GSRSFCMDWPNHRDCDYSAPGGGK(fluorescein)-NH2
modifications: not fully specified (bridges); printed as Ac-GSRSFCMDWPNHRDCDYSAPGGGK-NH2; cysteine pairing not given here
B26: DX-1089, Ac-GDSFCVTYIGTWETVCKRSDPGGGK-NH2 (peptide)
peptide: Ac-GDSFCVTYIGTWETVCKRSDPGGGK(fluorescein)-NH2
modifications: disulfide 5-16 (inferred)
B27: DX-1091, Ac-GDLRSCFTYYPFTTFSCSPADPGGGK-NH2 (peptide)
peptide: Ac-GDLRSCFTYYPFTTFSCSPADPGGGK(fluorescein)-NH2
modifications: disulfide 6-17 (inferred)
B28: DX-1179, Ac-AGYQFCTWDPIFCGWHGTGGGK-NH2 (peptide)
peptide: Ac-AGYQFCTWDPIFCGWHGTGGGK(fluorescein)-NH2
modifications: not fully specified (bridges); printed as Ac-AGYQFCTWDPIFCGWHGTGGGK-NH2; cysteine pairing not given here
B29: DX-1175, Ac-AGWTTCHIYDWFCSSSGTGGGK-NH2 (peptide)
peptide: Ac-AGWTTCHIYDWFCSSSGTGGGK(fluorescein)-NH2
modifications: not fully specified (bridges); printed as Ac-AGWTTCHIYDWFCSSSGTGGGK-NH2; cysteine pairing not given here

Target: T1, human serum albumin (HSA) (human, UniProt P02768 25-609)
T1 construct: also called caprylate-biotinylated-HSA
Assay: phage ELISA on immobilised caprylate-HSA, HRP anti-M13 antibody
Experimental: Phage were selected as described below from a pool of three phage libraries (TN6/6, TN10/9, TN12/1). Phage were tested for ability to bind to HSA an in ELISA format using caprylate-bound HSA, which had been passively immobilized on the surface of wells of a microtiter assay plate. Binding of phage to immobilized HSA was detected by adding HRP-conjugated anti-M13 antibody. Following addition of TMB substrate, the absorbance at 620 nm was read with an automated plate reader. Phage bound to HSA is shown by diagonal striped bars; control wells (no HSA) is shown by open bars.
For analysis of caprylate-HSA as a target, Immulon 2HB plates were prepared by the addition of 340 μl/well of caprylate-HSA at 5.6 μg/ml. The plates were incubated overnight at 4° C. The HSA-coated plates were then washed robotically with PBSCT six times (BioTek 404, BioTek Instruments). To account for plate binders, empty plates were also washed. An equal volume of each phage clone isolate was added to a plate well containing 70 μl PBSCT in both the target plate and the control plate. Plates were incubated for one hour at room temperature. The plates were washed seven times with PBSCT using the BioTek 404 apparatus. A 1:10,000 dilution of Pharmacia HRP-αM13 antibody conjugate in PBSCT was added to each well, at 100 μl/well. Plates were incubated for one hour. After incubation, plates were washed six times with PBSCT using the BioTek 404 apparatus. Following the wash, 100 μl of a 1:1 solution of the two-component TMB substrate solution was added to each well, and the plates incubated for 30 minutes. The plates were then read at 620 nm with an automatic BioTek plate reader.

| Binder | binding result |
| --- | --- |
| B1 | binds |
| B2 | binds |
| B3 | binds |
| B4 | binds |
| B5 | binds |
| B6 | binds |
| B7 | binds |
| B8 | binds |
| B9 | binds |
| B10 | binds |
| B11 | binds |
| B12 | binds |

Target: T1, human serum albumin (HSA)
Assay: fluorescence anisotropy; pH 6.2, 0.14 M NaCl, no caprylate
Experimental: (§1) Affinity determinations were made by first labeling polypeptides on the C-terminal end with NHS-fluorescein. Fluorescence anisotropy measurements were performed in 384-well microplates in a volume of 10 μl in binding buffer using a Tecan Polarion fluorescence polarization plate reader. The concentration of fluorescein labeled peptide was held constant (20 nM), and the concentration of HSA was varied. For pH 6.2, 7.1, and 7.4 binding conditions, a 3 mM phosphate, 0.01% Tween-20 buffer was used. For pH 9.1 binding conditions, a 3 mM sodium bicarbonate buffer, 0.01% Tween-20 nonionic detergent buffer was used. Once NaCl was added to any of these buffers, their pH was adjusted again to achieve the original pH. The binding mixtures were equilibrated for 10 minutes in the microplate at 30° C. prior to performing the measurement. The observed change in anisotropy was fit to the equation below via nonlinear regression to obtain the apparent KD. This equation assumes that the peptide and HSA form a reversible complex with 1:1 stoichiometry.

| Binder | Kd [µM] |
| --- | --- |
| B13 | > 100 |
| B14 | > 200 |
| B15 | 0.5 |

Target: T1, human serum albumin (HSA)
Assay: fluorescence anisotropy, fluorescein-labelled peptide, PBS
Experimental: as §1
Selected HSA binding polypeptides from these additional library selections were synthesized, fluorescein-labeled as in Example 1, and tested to determine an apparent KD for HSA in PBS. The polypeptides were synthesized to include an acetylated N-terminal dipeptide and a C-terminal dipeptide corresponding to the constant flanking amino acids immediately adjacent the display peptide as expressed on phage in the respective phage display libraries. The polypeptides were also synthesized with a C-terminal -Gly-Gly-Gly-Lys (SEQ ID NO: 24). The terminal Lys residue was amidated.

| Binder | Kd [µM] |
| --- | --- |
| B16 | 153 |
| B17 | > 10 |
| B18 | > 10 |
| B19 | > 10 |
| B20 | 42 |
| B21 | 4 |
| B22 | > 10 |
| B23 | > 10 |
| B24 | > 10 |
| B25 | 165 |
| B26 | > 10 |
| B27 | > 10 |
| B28 | 185 |
| B29 | 30 |
